Source: patent US6514698
Read-outs that look alike come from different tables or passages of the source.

What was measured:
[1] = tested on: M.CviRI DNA methyltransferase
[2] = target: T1, M.EcoRI DNA methyltransferase (UniProt P00472)
T1 sequence: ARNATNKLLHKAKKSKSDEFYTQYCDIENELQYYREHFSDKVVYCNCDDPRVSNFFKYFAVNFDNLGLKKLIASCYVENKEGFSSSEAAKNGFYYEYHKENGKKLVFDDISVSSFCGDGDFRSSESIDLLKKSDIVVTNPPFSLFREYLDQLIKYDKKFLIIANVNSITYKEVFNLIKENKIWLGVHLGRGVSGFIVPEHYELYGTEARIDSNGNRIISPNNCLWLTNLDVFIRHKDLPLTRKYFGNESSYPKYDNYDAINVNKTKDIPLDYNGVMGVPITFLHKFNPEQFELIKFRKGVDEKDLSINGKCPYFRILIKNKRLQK

[3] = target: T2, M.BamHI DNA methyltransferase (UniProt P23941)
T2 sequence: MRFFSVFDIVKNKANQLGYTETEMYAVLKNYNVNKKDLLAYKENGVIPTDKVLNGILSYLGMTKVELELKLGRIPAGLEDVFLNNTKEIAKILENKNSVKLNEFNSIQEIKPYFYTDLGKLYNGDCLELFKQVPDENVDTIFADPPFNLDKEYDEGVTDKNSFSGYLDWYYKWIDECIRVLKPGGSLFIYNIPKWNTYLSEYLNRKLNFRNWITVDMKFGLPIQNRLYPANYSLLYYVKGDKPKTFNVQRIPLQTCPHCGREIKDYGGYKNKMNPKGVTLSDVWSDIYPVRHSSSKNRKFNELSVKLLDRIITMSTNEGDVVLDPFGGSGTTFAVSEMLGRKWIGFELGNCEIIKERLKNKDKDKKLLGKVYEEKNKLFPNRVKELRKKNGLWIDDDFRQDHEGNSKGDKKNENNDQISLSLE

[4] = target: M.HaeIII DNA methyltransferase (UniProt P20589); settings: background 615
[5] = 3H-methyl-SAM, 23 C, 5 mM EDTA, no MTase 574

“GGTGGGAGAAGAAGATAAAAAGTAACATCTTTCTGCCTTCCAGATGATTCGAAGAATTTCTCCATCCAAGTGCGGCAGGTGGAGGATTGCCCTGTGGACATCTACTACTTGATGGACCTGTCTTACTCCATGCCGGATGATCTGTGGAGCATCCAGAACCTGGGTACCAAGCTGGCCACCCAGATGCGAAAGCTCACCAGTAACCTGCGGATTGGCTTCGGGGCATTTGTGGACAAGCCTGTGTCACCATACATGTATATCTCCCCACCAGAGGCCCTCGAAAACCCCTGCTATGAGTAAGTCCCTCCTCCAGACGCCAGGACAGCATCCTTTGCCCAGGAAGGTCCAAGTCCTGGTTCCTA (double strand) [GPIIIa Yuka/a 362 bp amplicon]” gave an activity ([1]; background 472) of 506 cpm.
“GGTGGGAGAAGAAGATAAAAAGTAACATCTTTCTGCCTTCCAGATGATTCGAAGAATTTCTCCATCCAAGTGCGGCAGGTGGAGGATTGCCCTGTGGACATCTACTACTTGATGGACCTGTCTTACTCCATGCCGGATGATCTGTGGAGCATCCAGAACCTGGGTACCAAGCTGGCCACCCAGATGCGAAAGCTCACCAGTAACCTGCGGATTGGCTTCGGGGCATTTGTGGACAAGCCTGTGTCACCATACATGTATATCTCCCCACCAGAGGCCCTCGAAAACCCCTGCTATGAGTAAGTCCCTCCTCCAGACGCCAGGACAGCATCCTTTGCCCAGGAAGGTCCAAGTCCTGGTTCCTA (double strand) [GPIIIa Yukb/b 362 bp amplicon]” gave an activity ([1]; 3H-methyl-SAM, 23 C, 5 mM EDTA, background 501) of 12200 cpm.
With “pBluescript 191 bp amplicon predigested with BamHI” the activity ([2]; background 661) was 32800 cpm and the activity ([3]; site cleaved, background 661) was 999 cpm.
For “pBluescript 191 bp amplicon predigested with EcoRI”, the activity ([2]; site cleaved, background 750) was 770 cpm and the activity ([3]; background 750, nearby frayed EcoRI end interferes) was 1310 cpm.
With “pBluescript SK+ polylinker 191 bp amplicon” the activity [2, 5] was 85000 cpm and the activity [3, 5] was 69700 cpm.
pUC19 was tested, and the activity ([1]; background 615) was 118000 cpm and the activity [4] was 26200 cpm.
